Laboratory results as given in the DeepSol protein solubility set.

Experiment: soluble on expression in E. coli; label from the status in PepcDB or PDB records

| Sequence | soluble on expression in E. coli |
| --- | --- |
| MKRMLVGCLAAALLFSSGWATAEAKGKQQSKPKWADKNKDGIPDDWELKYKLGLGKNVANQDKDRDGLTNRVEYNLRLNPTKTDTDKDKILDGDEDTDRDGLTNSAEVALGTKPEDADSDNDHVKDGAEKKGKAQLANVVQKLELQMKTAANQTIKIDYHWSDRHSHLHIKDQTGEVTTNDVQSLINDLQASPSLSNDEVIAKIQTLFSLDTPFRLELEWKYGSGRARKLSVKQDEDKGENAGQPGDDQDDDDQGHDQDGHDQNHDQDDDDYDGGNVGGDDGNSSE | not soluble |
| MKRSKRFAVLAQRPVNQDGLIGEWPEEGLIAMDSPFDPVSSVKVDNGLIVELDGKRRDQFDMIDRFIADYAINVERTEQAMRLEAVEIARMLVDIHVSREEIIAITTAITPAKAVEVMAQMNVVEMMMALQKMRARRTPSNQCHVTNLKDNPVQIAADAAEAGIRGFSEQETTVGIARYAPFNALALLVGSQCGRPGVLTQCSVEEATELELGMRGLTSYAETVSVYGTEAVFTDGDDTPWSKAFLASAYASRGLKMRYTSGTGSEALMGYSESKSMLYLESRCIFITKGAGVQGLQNGAVSCIGMTGAVPSGIRAVLAENLIASMLDLEVASANDQTFSHSDIRRTARTLMQMLPGTDFIFSGYSAVPNYDNMFAGSNFDAEDFDDYNILQRDLMVDGGLRPVTEAETIAIRQKAARAIQAVFRELGLPPIADEEVEAATYAHGSNEMPPRNVVEDLSAVEEMMKRNITGLDIVGALSRSGFEDIASNILNMLRQRVTGDYLQTSAILDRQFEVVSAVNDINDYQGPGTGYRISAERWAEIKNIPGVVQPDTIE | soluble |
| MKRVLVVDDEESITSSLSAILEEEGYHPDTAKTLREAEKKIKELFFPVIVLDVWMPDGDGVNFIDFIKENSPDSVVIVITGHGSVDTAVKAIKKGAYEFLEKPFSVERFLLTIKHAFEEYSKKAPPQEEIEFVGEHPKILEIKRLIPKIAKSKAPVLITGESGTGKEIVARLIHRYSGRKGAFVDLNCASIPQELAESELFGHEKGAFTGALTRKKGKLELADQGTLFLDEVGELDQRVQAKLLRVLETGSFTRLGGNQKIEVDIRVISATNKNLEEEIKKGNFREDLYYRLSVFQIYLPPLRERGKDVILLAEYFLKKFAKEYKKNCFELSEETKEYLMKQEWKGNVRELKNLIERAVILCEGEVIKPEDLGLKEKSWRDLSYLLKIKELKEAKKEFEKIFIEEKLREYDYDLKRTAEEIGIDLSNLYRKIKSLNIRVKSS | soluble |
| MKSILEQLSSMTVVVADTGDLDSIKKFQPRDATTNPSLILAAAKNPDYVKLIDKAIESSENTLPNGFSEIELIKETVDQVSVFFGKEILKIISGRVSTEVDARLSFDTEATVKKARKLINLYKNFGIEKERILIKIAATWEGIKAAEILEKEGIKCNLTLLFNFCQAVTCANANITLISPFVGRILDWHKAKTGKTSFIGAEDPGVISVTQIYKYFKEKGFKTEVMGASFRNLDEIKELAGCDLLTIAPKFLEELKREKGVLIRKLDASTKINNSIDYKFEEKDFRLSMLEDQMASEKLSEGITGFSKAIEELEELLIERLSEMKNHKLISAN | soluble |
| MKSKFFAQNRERLVNTLPDESITILFAGQAPHMSADAHYKFVPNRNFYYVTGIDEPNVIFMLKKFGNSVEETLFIEKSDPVMEKWVGKTVSNEEAEKISGIKKVIYLDSFEKTMSNIFFTENVKHLYLDLECREWKGTETKTLAFAKHVREQYPHVTIGNVYPNICELRVFKTDEEIEIIKEAIAVTKDGIYNVLKHAKADMMEYELEAQFDFTLKSSGIKHHAFNTILASGKNATVLHYEDNDAQIQNGDLVLLDLGAQKDYYNADISYTFPANGTFSSRQKQIYNIVLNALKETTEIIKPGLKFAALNEHAKKVLAEGCKAVGLIQEDEELSKYYYHGVSHFLGLDTHDVGTYKDRVLEEGMVITIEPGLYIEEESIGIRIEDDILVTKDGHENLSKDIIREVEEIEEFMRENNVNVKQDEVVTK | soluble |
| MKSLGADLDKALGRLSGGLYIITAKKGDVSSAMLASWVNQASFKPLGFSIAVAKDRAIESLMQVGDRFVLNVLEEGNYQPLMRHFLKRFAPGADRFEGVKTQPAENGAPILGDALAYMECEVVSRMDCGDHWAVYSTVYAGRVSKSEALTAVHHRKVGNHYLEHHHHHH | not soluble |
| MKSSSPISSLTTIISTGTNLGSGTDDDIYFGIHLNNGQKKEWLLDKETYNDFENGATDEYYLYINDMDFLPTMVDKVWVRKNSTGSFAGNWFFKALRIDANGNDVLSVSPNEWITDSNSQAEFNSDWSSVTNLTDPEFLEHHHHHH | soluble |
| MKTAIVTDSASYLSAADVEKYHIHVVPITVIFGHQTYLENVEITSKEFYERMRTAPELPTTTQITLGQMQTTYDQLAKAGYDAVISIHLSSGITSFITNLESYLPNVTNIKVYPFDSLITAGGEAYMVLLAAKLVTEGYSPEQVIAQLKKIRETTGVYFVVDNLSHLVRTGRLSNASGLVGNLLRIKPVLTFQDGKIVAIQKERTMRRAYAAIKAKLAAEIAAVDYPLRVTIENGNNPKLQAEWTADLKASFPDLTIDEGEIGPVVGVHVGEGVMGLIWARDWEKWTI | not soluble |
| MKTIRYALKKEKEMMKKFIAPLLALLVSGCQIDPYTHAPTLTSTDWYDVGMEDAISGSAIKDDDAFSDSQADRGLYLKGYAEGQKKTCQTDFTYARGLSGKSFPASCNNVENASQLHEVWQKGADENASAIRLN | not soluble |
| MKTISNEQLTIQVSPHGAELCSIFANGKEYLWQADPAFWKRHSPVLFPIVGSVWENQYRNEGIAYTLSQHGFARDMEFTLVSEKEDEVRYHLVSNEETLRKFPFPFCLEIGYRIQGKQIEVIWEVKNTGEKEMYFQIGAHPAFYWPDFNADTQNRGFFGFDKEEGLKYILISEKGCADPSTEYSLELTDGLLPLDTHTFDKDALIIENEQIHKVTLYTKEKKAYLSLHFHAPVVGLWSPPAKNAPFVCIEPWYGRCDRAHYTGEYKDKDWMQHLQPEETFRGGYTIEIDELEHHHHHH | not soluble |
| MKTKEDMQELYFPTPKLIEWENGVRQYSTVRGDTEVLMSYVPPHTNVEPHQHKEVQIGMVVSGELMMTVGDVTRKMTALESAYIAPPHVPHGARNDTDQEVIAIDIKRLKADETYTSPEDYFLDIFKTRDLLPGMEVTFFVEDWVEIMLAKIPGNGGEMPFHKHRNEQIGICIGGGYDMTVEGCTVEMKFGTAYFCEPREDHGAINRSEKESKSINIFFPPRYNRAKAKKMKADELEHHHHHH | soluble |
| MKTKLMTLQDATGFFRDGMTIMVGGFMGIGTPSRLVEALLESGVRDLTLIANDTAFVDTGIGPLIVNGRVRKVIASHIGTNPETGRRMISGEMDVVLVPQGTLIEQIRCGGAGLGGFLTPTGVGTVVEEGKQTLTLDGKTWLLERPLRADLALIRAHRCDTLGNLTYQLSARNFNPLIALAADITLVEPDELVETGELQPDHIVTPGAVIDHIIVSQESK | soluble |
| MKTLEAIKKELGEYEGKNIKIMEVCGTHTSSIFKNGIRSLISPRIQLISGPGCPVCVTASSYIDRLVEYSLKDNHCVLTFGDMMKVKGHKLSLTEAKATGGNVKILYSPLSAVKIAIKSPETQFIFAAVGFETTAPIYALMIEEIIKNNIKNLKLMTSIKTIIPAISYICENEKNIDAFLCPGHVSVIIGSSVYTDMALKYRKPFVIGGFEGGHIIAAIYEIIRQISNNEYSMKNMYQSAVSPEGNQKAKSLIDKYFEAADDYWRGIGIIKNSGLRLRTEYRDFDAGSTIFEDADAAPSGCKCADVILGRITPAQCPLFGKACTPLNAVGACMVSSEGACGIWYRNCEV | soluble |
| MKTNSEELTVFVQVVESGSFSRAAEQLEMANSAVSRIVKRLEEKLGVNLLNRTTRQLNLTEEGAQYFRRAQRILQEMAAAETEMLAVHEVPQGVLRVDSAMPMVLHLLAPLAAKFNERYPHIRLSLVSSEGYINLIERKVDIALRAGELDDSGLRARHLFDSHFRVVASPEYLAKHGTPQSAEDLANHQCLGFTEPGSLNTWAVLDAQGNPYKISPHFTASSGEILRSLCLSSCGIACLSDFLVDNDITEGKLIPLFAEQTSNKTHPFNAVYYSDKAVNLRLRVFLDFLVKELGKNMNRTNTK | not soluble |
| MKTNVIIDGDACPVVNSVIELTKGTGIFVTILRSFSHFSQQIQPEHVKIVYVDDGPDAVDYKIVELASNNDIVITQDYGLASLLIDKVHTVMHHKGNIYHSNNIQSLLDQRYLNAQIRRRGGRHKGPPPFTTEDRLKFEHAFRKIINQILEHHHHHH | soluble |
| MKTPDQKSCETAESSNTKYSPNLVIDGAAVSNEDVAGKVADLEYAHSFPDLVLNVEKHDDEYIKSFLLQRNWYHGMMFGKAAEKLLKWESSYIVRRSMGPTHKFLCITARVEDKYFHFQFNWNSEGWSCPILYEKFPRIPVKRYEHIYQLLDAWSLVVNQLVPISRCSMILQHSSIALENQLGRGAFGEVIKAKYVPMGATVPTEVAVKRLIGDAKRPQLVDFCNEANIMTLLEHKNIVALYGFASLQQPIMLVIEFVPGGDLRKYLQRTPNVPSKQIIKFAMEIASGMKHLSSKNVIHRDLAARNCLITKELNVKISDFGLSVNESETKMKSLKKAPIRWLSPETFSKGLFNEKTDVWSYGVLLTELMTRCAHDPLWPKNLKQVQKWIKESEHPHKIEDGDPSELKEIVDACCAKIPSVRINFREVKNRLAMLQQKKKTLELDAQKPMSPNPAIEKKKSEDRRNNMDRRNKTNRKSHTSTDRTNSNNTLTRKKSRDAGKNDRSNERKNKAKGGNLSVDGTNKSSRRKEQKGAVGISQEMVTK | not soluble |
| MKTPTFGKREETLTYQTRYAAYIIVSKPENNTMVLVQAPNGAYFLPGGEIEGTETKEEAIHREVLEELGISVEIGCYLGEADEYFYSNHRQTAYYNPGYFYVANTWRQLSEPLERTNTLHWVAPEEAVRLLKRGSHRWAVEKWLAAASLEHHHHHH | soluble |
| MKTQVAIIGAGPSGLLLGQLLHKAGIDNVILERQTPDYVLGRIRAGVLEQGMVDLLREAGVDRRMARDGLVHEGVEIAFAGQRRRIDLKRLSGGKTVTVYGQTEVTRDLMEAREASGATTVYQAAEVRLHDLQGERPYVTFERDGERLRLDCDYIAGCDGFHGISSQSIPAERLKVFERVYPFGWLGLLADTPPVSHELIYANHPRGFALCSQRSATRSRYYVQVPLTEKVEDWSDERFWTELKARLPAEVAEKLVTGPSLEKSIAPLRSFVVEPMQHGRLFLAGDAAHIVPPTGAKGLNLAASDVSTLYRLLLKAYREGRGELLERYSAICLRRIWKAERFSWWMTSVLHRFPDTDAFSQRIQQTELEYYLGSEAGLATIAENYVGLPYEEIE | soluble |
| MKTQVVINAKIYTGQEVVENGFIRYAETIKEIGLMAQYVSQENETVLDAAGKIVIPGMIDVHIHGGYDIDAMDANSDGLVTLGKEMLKEGVTTYFPTTMTQAPEAIEAALHAAKEAKEKGAHFEYIHLEGPYVSKKRAGAQPLEHIVPANIEQFKQWQEASGNLIKLVTYAPEEEGALEFEQYLAETGVVGTMGHTDAIDAQLKNRNITHATHLYNQMRGLHHREPGVVGHVLLNPDVMVEVITDGIHIHPDMVKLAYKLKGPKKVSVITDAMRAKGLEDGLYELGGQPVHVKDGSARLEDGTLAGSILKMDQAFRNVIEFTGCSIEDAVLMTSVNQAEEFGLNNKGALAVGKDADFVVMNEDLHVYDTVRLGIHMKEGK | not soluble |
